From the nanobody polyreactivity screen of Harvey et al. (2022)

test: yeast display, Sf9 membrane polyspecificity reagent, FACS + sequencing; frameworks hold sequencing errors
Summary of the method: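 Genes from sorted yeast were amplified by colony PCR, read by MiSeq 2 × 250 sequencing and filtered on CDR length. These cells carried a synthetic nanobody library in Saccharomyces cerevisiae BJ5465 and were sorted by FACS into low and high (top ~1%) gates on anti-HA and streptavidin fluorescence. Polyreactivity is labelled according to the gate of origin.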

Row | Sequence | polyreactivity (PSR sort gate)
1 | QVQLEESGGGLVQAGGSLRLSCAASGIIFWYYAMGWSRQAPGKERELVAAINSGDSTNYADSVKGRYTISRDNAKNTVYLQMNSLKPEDTAVYYCATVSSYTGGYWGQGTQVTVSS | low polyreactivity
2 | QVQLVESGGGLVQAGGSLRLSCAASGRTFYFYTMGWYRQAPGKERELVAAITSGGSTNYADSVKGRFTISRDNAKNTVYLQMNSLKPEDTAVYYCAAIYYRVYGYGLRMYYWGQGTQVTVSS | high polyreactivity
3 | QVQLVEAGGGLVQAGGRLRLSCAASGRIFGRTAMGWYRQAPGKERELGAAIRRSSASTYYADSVKGRFTISRDNAKNTFYLQMNSLKPEDTAVYYCATQSYSYYGYRYRYAAFDYWGQGTQVTVSS | high polyreactivity
4 | QVQLVESGGGLVQAGGSLRLSCAASGNIFDLYAMGWYRQAPGKERELVAAITRSSSRTYYADSVKGRFTISRDNAKNTVYLQMNSLKPEDTAVYYCNKRWITSYYTRYDYWGQGTQVTVSS | high polyreactivity
5 | QVQLVESGGGLVQAGGSLRLSCAASGNIFDPYAMGWYIQAPGKERELVAVINASGDSTYYADSVKGRFTISRDNAKNTVYLQMNSLKPEDTAVYYCAADHRGEYDYWGQGTQVTVSS | low polyreactivity
6 | QVQLVESGGGLVQAGGSLRLSCAASGSILPGNAMGWYRQAPGKEREFVAAISKSGGRTNYADSVKGRFTISRDNAKNTVYLQMNSLKPEDTAVYYCAARRSTGYGKSNLYNYWGQGTQVTVSS | high polyreactivity
7 | QVQLVESGGGLVQAGGSLRLSCAASGSIFRYNAMGWYRQAPGKERELVAAITWSGGSTYYADSVKGRFTISRDNAKNSVYLQMNSLKPEDTAVYYCAASPYPHYRRYTGGFYYWGQGTQVTVSS | high polyreactivity
8 | QVQLVESGGGLVQAGGSLRLSCAASGIIFGVYAMGWYRQAPGKERELVAAISRSGDSTYYADSVKGRFTISRDNAKNTVYLQMNSLKPEDTAVYYCAAEWYITFDYWGQGTQVTVSS | low polyreactivity
9 | QVQLVESGGGLVQAGGSLRISCAASGSIYWDNAMGWYRQAPGQESELVAAITSSGDTTYYADSVKGRFTISRDNAKNTVYLQMNSQKPEDTAVYYCAADYYTAYYVTLDYWGQGTQVTVSS | low polyreactivity
10 | QVQIVESGGGLVQAGGSLRISCAASGRTLRYNTMGWSRKAPGKERELVAAISIRGGSTYYADSVKGRFTISRDNAKYTVYLQMISLKAEDTAVYYCNVVFQKAARIVEVDYWGQGTQVSVSS | high polyreactivity
11 | QVQLVESGGGLVQAGGSLRLSCAASGNTFGYYAMGWYRQAPGKERELVAAINFGGDTSYADSVKGRFTISRDNAKNTVYLQMNSLKPEDTAVYYCAADGSYWIYADGDYWGQGTQVTVSS | low polyreactivity
12 | QVQLVESGGGLVQAGGSLRLSCAASGGTFRNYPMGWYRQAPGKERELVAAITTGTITNYADSVKGRFTISRDNAKNTVYLQMNSLKPEDTAVYYCNAGAFYSDPYDYWGQGTQVTVSS | low polyreactivity
13 | QVQLVESGGGLFQAGGSLRLSCAASGFTFGHNSMGWYRQAPGKERELVAAISYSGGSTYYADSVKGRFTSSRDNAKNTVYLQMNSLKPEDTAVYYCAKRSHTDSVPGVYNEGDFWGQGTQVTVSS | low polyreactivity
14 | QVQLVESGGGLVQAGGSLRLSCAASGRTFDLNAMGWYRQAPGKERELVAAISFSVADTYYADSVKGRFTISRDNAKNTVYLQMNSLKPEDTAVYYCAADSELGSLSGESDYWGQGTQVTVSS | low polyreactivity
15 | QVQLVESGGGLVQAGGSLRLSCAASGRTFYYYAMGWYRQAPGKERELVAAISWSGGRTYYADSVKGRFTISRDNAKNTFYLQMNSMNPEDTAVYYCAADKYYSEFDYWGQGTQVTVSS | low polyreactivity
16 | QVQLVESGGGLVQAGGSLRLSCAASGRTFRNNAMGWYRQAPGKERELVAAITSGGSTNYADSVKGRFTISRDNAKNTVYLQMNSLKPEDTAVYYCAKDFWYVTGGWSSGMDYWGQGTQVTVSS | low polyreactivity
17 | QVQLVESGGGLVQAGCSLRLSCASSGLTFSFYAMGWYRQAPGKERELVAAISKGGGSTSYADSVKGRFTISRDNAKNTVYLQMNSLKPEDTAVYYCAARYYYSRSRLYYYWGQVTQVTVSS | high polyreactivity
18 | QVQLVESGGGLVQAGGSLRFSWAASGFIFRSNAMGWYRQAPGKERELVAAISKSGGSTYYADSVKGRFTISRDTAKKTVYLQMNSLKPEDTAVYYCFVDYYPYDYWGQGTQVTVSS | low polyreactivity
19 | QVQLVESGGGLVQAGVSLRLRCASSGFTFRPYAIGWYRQAPGKERELVAAITSGDSTNYADSVKGRFTISRDNEKNTVYLQMNSLKREDTAVYYCAADSTGRPSVSYDYWGQGTQVTVSS | low polyreactivity
20 | QVQLVESGGGLVQAGGSLSLSCAASGRSFFNYAMGWYRQAPGKERELVAAISFSDGSTYYADSVKGRFTISRDNAKNTVYLQMNSLKPEDTAVYYCAAEPDYVYYRSDQALFDYWGQGTQVTVSS | high polyreactivity
21 | QVQLVESGGGLVQAGGSLRLSCAASGFTFAVFARGWYRQAPGKERELVAAISRTGTRTYYADSVKGRFTISRDNAKNTVYLQMNSLKPEDTAVYYWAADKYRHGYDYWGQGTQVTVSS | low polyreactivity
